Data from patent US20110282033A1 (Ablynx, published 2011).
Changes are numbered by the printed parent chain.

B1: 73-A7 (VHH)
VHH: EVQLVESGGGLVQPGGSLRLSCAASGFTFGSYDMSWVRQAPGKGPEWVSAINSGGGTTYYADSVKGRFTISRDNAKNTLYLQMNSLKPEDTAVYYCATGRPLWDYSDYADFGSWGQGTQVTVSS
notes: Purified Nanobody
B2: 55-B8 (VHH)
VHH: EVQLVESGGGLVQPGGSLRLSCTASTSIFSLYDMGWYRQAPGKERELVARITSGRSINYADSVKGRFTISRDNAKNTVYLQMNSLKPEDTAAYYCNANHHDWGTNWDFWGQGTQVTVSS
notes: Purified Nanobody
B3: 53-F3 (VHH)
VHH: EVQLVESGGGLVQPGGSLRLSCAAPGSIVSINNMGWYRQAPGKQRELVALITSGGTTTYADSVKGRFTISGDNAKKMVYLQMNSLKPEDTAVYYCNAVFTTDTRNWYDYWGQGTQVTVSS
B4: 53-F7 (VHH)
VHH: EVQLVESGGALVQPGGSLRLSCAASGSIVSIDFMGWYRQAPGKQREVVTFITSGGSPNYVDSVEGRFTISRDNAKNTMYLQMNSLKPEDTAVYYCYMQSGTAGSWGQGTQVTVSS
B5: 53-A3 (VHH)
VHH: B4 VHH with A10G, S30R, I31V, E64T, M97I
notes: Purified Nanobody
B6: 73-E6 (VHH)
VHH: EVQLVESGGGLVQAGGSLRLSCAASGSTFTETPFTMHALSWYRQSEGKERELVAAISLAGTTNYADSVKGRFTISRDNGKKAVYLQMNSLKAEDTAVYYCNVGSWFQGYYAMDYWGEGTLVTVSS
notes: Purified Nanobody
B7: 53-H8 (VHH)
VHH: EVQLVESGGGLVQAGGSLRLTCVVSGRTYNNYVMGWFRQAPGKEREFVAGIDWSSSWTSTTLYADSVKGRFTISRNNAKKTVSLQMNSLKPEDTAVYYCAANLGSKNPSLRPGRETYNYWGQGAQVTVSS
notes: Purified Nanobody
B8: 73-A9 (VHH)
VHH: EVQLVESGGGLVQPGESLSLSCTASGSAFGINSMGWYRQAPGKERELVAVMYSDSNTTYTDSVKGRFTISRDYAKNTVYLRMNSLKPEDTAVYFCHCEAIREPGDYYGWHYWGKGTLVTVSS
notes: Purified Nanobody
B9: 53-A6 (VHH)
VHH: EVQLVESGGGLVQPGGSRRLSCATSASITSISFMGWYRQAPGKQRELVAFIPSSGVPNYVGFAEGRFTISRDDAKNTVYLQMNGLKPEDTAVYYCYLQPLGGSGSWGQGTQVTVSS
B10: 53-B7 (VHH)
VHH: EVQLVESGGGLVQAGGSLRLDCAASGRTSYAMGWFRQGTGKEREFVAALSPSGYYTYYEDSVKGRFSIHRDNAKNMVYLQMNSLTPEDTAVYYCAAGRHETASGILPNYWGQGIQVTVSS
B11: 53-F9 (VHH)
VHH: B10 VHH with L49I, S67F, I68M, E100N, A102V, N108D, Q112R
B12: 53-C7 (VHH)
VHH: B10 VHH with K41Q, L49I, S67N, A73T, E100K, A102V, N108D
B13: 53-G7 (VHH)
VHH: B10 VHH with L49I, S67F, E100K, A102V, N108D
B14: 53-G8 (VHH)
VHH: B10 VHH with E1K, A47S, L49I, E100Q, A102V, N108D
B15: 53-C4 (VHH)
VHH: B10 VHH with L49I, E100Q, A102V, N108D
B16: 73-G9 (VHH)
VHH: EVQLVESGGGLVQPGGSLKLSCAAAGFTFRPYAMGWFRQAPGKEREFVAAVATNVGTTFYQDSVKGRFTISRDNAKNTVYLQMNSLRPEDTAVYYCNTKLYSGIFREYWGQGTQVTVSS
notes: Purified Nanobody
B17: 53-G10 (VHH)
VHH: EVQLVESGGGLVQAGGSLRLSCAASGLFFSFYNMGWFRQAPGKEREFVAIIRKTGGSTYYADSVKGRFTISRDNAKNTVYLQMDSLKPEDTAVYYCAAASSYYSDSYYYTRSDKYNYWGQGTQVTVSS
notes: Purified Nanobody
B18: 53-D6 (VHH)
VHH: EVQLVESGGGLVEAGGSLRLSCTASGGTFSTYAMGWFRQAPGKEREFAAAISRNGGSKGYKESVKGRFTISRDNAKNTVYLQMNSLKPEDTAVYYCAASRTYTYSTAMKDYNYWGQGTQVTVSS
B19: 53-A5 (VHH)
VHH: EVQLVESGGGLVQAGGSLRLTCVVSGRTYNNYVMGWFRQAPGKEREFVAGIDWSSSWSSTLYADSVKGRFTISRNNAKKTVSLQMNSLKPEDTAVYYCAANLGSKNPSLRPGREAYNYWGQGTQVTVSS
notes: Purified Nanobody
B20: 55-D5 (VHH)
VHH: EVQLVESGGALVQPGGSLRLSCAASGFTFRNYDMSWVRQAPGKGPEWVSSINSGGGSTYYADSVKGRFTISRDNAKNTLYLQMNSLKPEDTAVYYCATGLITTAQAMLEEYDYWGQGTQVTVSS
notes: Purified Nanobody

Key:
[1] = molecular target: T1, Recombinant human FGFR4/Fc chimera (R&D Systems Cat #685 FR) (human, UniProt P22455 22-369); test: ELISA: periplasmic extract on coated FGFR4-Fc (500 ng/ml)
T1 construct: extracellular domain; Bought reagent; also called Fc-FGFR4; not shown: Fc part of the bought chimera (detected with anti-human IgG)
T1 sequence (looked up): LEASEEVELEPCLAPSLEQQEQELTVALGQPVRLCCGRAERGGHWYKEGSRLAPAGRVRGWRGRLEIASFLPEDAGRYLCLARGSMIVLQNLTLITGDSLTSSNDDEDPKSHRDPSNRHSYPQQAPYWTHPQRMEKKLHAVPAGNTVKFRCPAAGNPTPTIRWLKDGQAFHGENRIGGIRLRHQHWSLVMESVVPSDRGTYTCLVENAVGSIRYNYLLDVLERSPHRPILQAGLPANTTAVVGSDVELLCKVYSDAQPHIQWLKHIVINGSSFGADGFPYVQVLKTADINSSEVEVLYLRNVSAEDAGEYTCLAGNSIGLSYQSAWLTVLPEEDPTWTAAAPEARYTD
Protocol: In order to determine binding specificity to FGFR4, the clones were tested in an ELISA binding assay setup, using the monoclonal […]. Shortly, 500 ng/ml of Fc-FGFR4 (R&D Systems Cat #685 FR) was coated on Maxisorp ELISA plates (Nunc) and free binding sites were blocked using 4% Marvel skimmed milk in PBS. After a wash step with PBS, 10 ul of periplasmic extract from the monoclonal inductions of the different clones in 100 ul 2% Marvel PBS were allowed to bind to the FGFR4-Fc. […] 53-G3 was used as a reference since it was selected against PDGFRβ-Fc.

[2] = molecular target: T2, Recombinant human PDGFRβ/Fc chimera (R&D Systems Cat #385 PR) (human, UniProt P09619 33-532); test: ELISA binding screen on captured PDGFRβ-Fc and ELISA ligand competition
T2 construct: extracellular domain; Bought reagent; also called PDGFRP-Fc; not shown: Fc part of the bought chimera (captured and detected with anti-human IgG)
Protocol: (§1) In order to determine binding specificity to PDGFRβ-Fc, the clones were tested in an ELISA binding assay setup, using the monoclonal phage pools. Shortly, 1 ug/ml of Fc-capturing Ab (Rabbit anti-human IgG, DAKO # A423) was coated on Maxisorp ELISA plates (Nunc) and free binding sites were blocked using 4% Marvel skimmed milk in PBS. Next, 0.1 ug/ml receptor in 2% Marvel/PBS was captured. After a wash step with PBS, 10 ul of supernatant from the monoclonal phage inductions of the different clones in 100 ul 2% Marvel PBS were allowed to bind to the captured PDGFRP-Fc. […] Binding specificity was determined based on OD values compared to controls having received no phage.
Clones tested in the PDGFRβ binding assay were also screened for their ability to block PDGF-BB binding to PDGFRβ-Fc. For this, Nanobody containing periplasmic extracts, or selected purified Nanobodies, were used in an ELISA-based ligand competition setup. In short, 1.0 ug/ml (80 nM) recombinant human PDGF-BB (R&D Systems #220-BB) was coated in 96 well Maxisorp microtiter plates (Nunc) and blocked with 4% Marvel skimmed milk in PBS. In parallel, 1 ug/ml (12 nM) PDGFRβ-Fc chimera was incubated with periplasmic extracts or purified Nanobody. After 1 hour, the receptor-Nanobody pre-mixes were incubated 1 hour with the coated ligand. Bound PDGFRβ-Fc was detected using HRP-conjugated goat anti-human IgG (Jackson Immunoresearch, Cat #109-035-098). Blocking activity was determined as loss of OD signal, as compared to wells where no Nanobodies, or irrelevant Nb, had been added.

[3] = molecular target: T2, Recombinant human PDGFRβ/Fc chimera …; test: phage ELISA on PDGFRβ-Fc (0.1 ug/ml) captured by coated anti-human IgG, detection with HRP anti-M13
Protocol: as §1

[4] = molecular target: T2, Recombinant human PDGFRβ/Fc chimera …; test: competition ELISA: PDGFRβ-Fc (12 nM) pre-mixed with Nanobody, binding to coated PDGF-BB (80 nM), detection with HRP anti-human IgG
Protocol: In order to determine the receptor blocking efficiency of clones tested positive for PDGF-BB competition, a dilution series of purified Nanobodies were tested in the ELISA-based ligand competition setup. In short, 1.0 ug/ml (80 nM) recombinant human PDGF-BB (R&D Systems #220-BB) was coated in 96 well Maxisorp microtiter plates (Nunc) and blocked with 4% Marvel skimmed milk in PBS. In parallel, 1 ug/ml (12 nM) PDGFRβ-Fc chimera was incubated with a dilution series of purified Nanobodies. After 1 hour, the receptor-Nanobody pre-mixes were incubated 1 hour with the coated ligand. Bound PDGFRβ-Fc was detected using HRP-conjugated goat anti-human IgG (Jackson Immunoresearch, Cat # 109-035-098). […] Ligand is coated at 80 nM and receptor is added at 12 nM.

[5] = molecular target: T1, Recombinant human FGFR4/Fc chimera (R&D …); test: competition ELISA: FGFR4-Fc with heparin and MgCl2 pre-mixed with Nanobody, binding to coated acidic FGF (129 nM), detection with HRP anti-human IgG
Protocol: Clones tested in the FGFR4 binding assay were also screened for their ability to block acidic FGF binding to FGFR4-Fc. For this, purified Nanobodies, were used in an ELISA-based ligand competition setup. In short, 2.0 ug/ml (129 nM) human FGF (R&D Systems Cat #232-FA/CF) was coated in 96 well Maxisorp microtiter plates (Nunc) and blocked with 4% Marvel skimmed milk in PBS. In parallel, 0.25 ug/ml (1.9 nM) FGFR4-Fc chimera plus 2.5 μg/ml heparin and 10 mM MgCl₂ were incubated with periplasmic extracts or purified Nanobody. After 1 hour, the receptor-Nanobody pre-mixes were incubated 1 hour with the coated ligand. Bound FGFR4-Fc was detected using HRP-conjugated goat anti-human IgG (Jackson Immunoresearch, Cat #109-035-098). Blocking activity was determined as loss of OD signal, as compared to wells where irrelevant Nanobody had been added. […] Ligand is coated at 129 nM and receptor is added at […].

T2 sequence (P09619 33-532, change not shown): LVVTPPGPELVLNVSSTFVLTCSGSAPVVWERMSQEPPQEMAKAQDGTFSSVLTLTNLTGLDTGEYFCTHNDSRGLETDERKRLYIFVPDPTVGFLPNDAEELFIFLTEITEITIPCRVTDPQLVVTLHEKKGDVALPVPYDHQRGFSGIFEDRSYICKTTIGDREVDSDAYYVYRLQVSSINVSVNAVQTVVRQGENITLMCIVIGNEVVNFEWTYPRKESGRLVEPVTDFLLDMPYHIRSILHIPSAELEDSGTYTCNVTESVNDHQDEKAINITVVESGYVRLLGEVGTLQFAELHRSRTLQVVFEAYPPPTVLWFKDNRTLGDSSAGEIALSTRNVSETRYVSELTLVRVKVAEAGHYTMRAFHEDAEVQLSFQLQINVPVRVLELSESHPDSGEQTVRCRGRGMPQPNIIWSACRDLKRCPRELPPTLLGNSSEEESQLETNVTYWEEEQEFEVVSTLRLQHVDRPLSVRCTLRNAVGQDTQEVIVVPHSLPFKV

Binder | binding result [2] | also measured
B1 |  | binding result [1]: binds
B2 |  | binding result [1]: binds
B3 | binds | 
B4 | binds | 
B5 |  | binding result [3]: binds
B6 |  | binding result [1]: binds
B7 |  | IC50 (read off the curve) [4]: ~9 nM
B8 |  | binding result [1]: binds
B9 | binds | 
B10 | binds | 
B11 | binds | 
B12 | binds | 
B13 | binds | 
B14 | binds | 
B15 | binds | 
B16 |  | IC50 (read off the curve) [5]: ~10 nM
B17 |  | IC50 (read off the curve) [4]: ~60 nM
B18 | binds | 
B19 |  | IC50 (read off the curve) [4]: ~8 nM
B20 |  | IC50 (read off the curve) [5]: ~8 nM
